The values that follow come from publication PMC7265355 (2020).

The target in assay [1] is T1, ACE2-Ig (extracellular domain of human ACE2 linked to the Fc domain of human IgG1) (human, UniProt Q9BYF1 18-740). Put plainly: SPR. For orientation: Surface plasmon resonance follows binding to a sensor surface in real time, without labels.
For assay [2], the target named is T1, ACE2-Ig (extracellular domain of human …). Briefly: SPR. This is another data set of the same source.

T1 sequence (Q9BYF1 18-740): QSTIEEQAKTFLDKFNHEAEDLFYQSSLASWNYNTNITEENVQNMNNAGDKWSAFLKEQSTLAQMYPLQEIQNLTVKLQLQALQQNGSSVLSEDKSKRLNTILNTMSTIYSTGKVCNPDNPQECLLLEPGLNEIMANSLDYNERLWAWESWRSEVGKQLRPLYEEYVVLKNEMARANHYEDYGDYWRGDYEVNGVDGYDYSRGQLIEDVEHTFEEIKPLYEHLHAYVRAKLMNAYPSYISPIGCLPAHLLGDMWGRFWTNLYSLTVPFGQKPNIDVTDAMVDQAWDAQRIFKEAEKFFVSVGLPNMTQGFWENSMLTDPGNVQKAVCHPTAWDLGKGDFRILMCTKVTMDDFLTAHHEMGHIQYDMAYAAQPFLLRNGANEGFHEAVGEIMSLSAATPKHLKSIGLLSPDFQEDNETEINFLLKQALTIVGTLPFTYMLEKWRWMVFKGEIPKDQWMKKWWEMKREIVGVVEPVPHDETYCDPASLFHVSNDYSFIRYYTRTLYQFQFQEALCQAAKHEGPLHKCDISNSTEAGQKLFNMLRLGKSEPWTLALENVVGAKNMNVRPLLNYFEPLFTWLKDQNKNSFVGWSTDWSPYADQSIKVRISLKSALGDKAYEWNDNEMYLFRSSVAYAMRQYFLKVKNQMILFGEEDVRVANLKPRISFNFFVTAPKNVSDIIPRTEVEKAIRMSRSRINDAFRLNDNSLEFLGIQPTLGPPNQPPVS

B1: SARS-CoV S protein (natural protein)
chain: not shown
On to B1, for which the Kd (commonly the concentration at which binding is half-saturated) in assay [1] worked out at 177 nM. Moreover, the koff (usually a measure of how fast the partners let go of each other) in assay [2] was 0.00294 s⁻¹.
